Experimental data from the supplement of paper PMC12764529.
± gives the half width of the 95% confidence interval.

Assay: folding stability dG unfold from trypsin proteolysis; higher = more stable
How it was run: (§1)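 Only designs with AlphaFold2 dimer inter-PAE above 15 were retained; each was a mini-protein under 80 residues with no cysteine, in a PA-tagged cDNA display construct. After digestion with trypsin and chymotrypsin and sequencing, K50 was inferred by Bayesian fitting of counts, and unfolding free energy was derived per protease or combined against a sequence-predicted unfolded-state K50 and a shared folded-state K50.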

Sequence	folding stability dG unfold
SAGGSAGGSPLDIEIKMEFHPDHGYWEMEIKIPGNGREINIHYQYEGGKPQITSPEQILDAIKSAGGSAGGS [r20_131_TrROS]	0.622 ± 0.12 kcal/mol
SAGNSNTRYIVRIKIKKYNPETGKIEEIEIDVPISDDDLNIPVEKIIEALKKAFPNTEIEAEITKVPASAGG [r19_189_TrMRF]	3.77 ± 0.29 kcal/mol
SAGGSAMTITIKIENEDVTIPSSKSKEEILKAIKENPDVPVTVTLPDGTPVTLSPEELEKLIKEEKSAGGSA [r15_36_JUSTAS]	1.02 ± 0.032 kcal/mol
SAGGSSYSVAQSPGPARLYSVPQPDGRVVEVDVEELPGGLLRVRVPDDPVPRLFPASLSLADIVSLSAGGSA [r2_338_JUSTAS]	0.644 ± 0.02 kcal/mol
SAGGSAEIEITVTVPPEMTEEEIKEQLEAELQRLTGEKVEIVDIRVEEVNGELTVTVKIKIEPAPPSAGGSA [r15_105_TrROS_Hall]	3.04 ± 0.28 kcal/mol
SAANTEEITITVPLTDPETGEERTVTIPVKYVNTNKPYKTPNGSTKTIPVPKSTVIKEAEEEAKKIFESSSA [r9_698_JUSTAS]	-0.381 ± 0.95 kcal/mol
SAGGSLPLPPGATVETTEVDPANPDRTYKTTTTFTPVPGNTLLATPVVTDPETGTTTTTTTTVPLALGSAGG [r13_268_JUSTAS]	0.321 ± 0.054 kcal/mol
SAGGSAGGSAGGGKKVKVIIAADKPEEAEKAIEKLEKETDLPLEDVIVIPREEAEKLGLASAGGSAGGSAGG [r7_84_TrMRF]	-1.27 ± 0.82 kcal/mol
SAGGKGKAVPFEIEFEAPGGKKVKAKITRIDLPDKPIYRVEVEVDGKKITYTATEDEAANLTFTPGGSAGGS [r8_257_TrMRF]	1.48 ± 0.058 kcal/mol
SAGGSAGGSAGMVIEDPSGVTTVVTFDTSVPVVTTTTLTKDPNSNNYTTTTTTTPVTVPVSAGGSAGGSAGG [r17_491_JUSTAS]	1.34 ± 0.099 kcal/mol
SKIEIEVFPEEGFIRIRLEAENLTEEELKDAIIEFIKSLGFPAEVEILRIEPSGNTIRIEALVKVEPGYLSA [r9_347_TrMRF]	3.27 ± 0.12 kcal/mol
SAGGSAGGSAGGKVYFLPDNTVVYELPDGLYLAVTVNENGEPSRTLYRVLSPTEIKPFPLSAGGSAGGSAGG [r7_423_TrMRF]	1.65 ± 0.024 kcal/mol
SMKPVKITEVTEDTITVTVTVYDKETNRLVKVTAEITFDKETKKLTIKVKVEVLPPLSEEQRKALEEALKSA [r9_1038_TrROS_Hall]	1.98 ± 0.076 kcal/mol
SEITIKLKVENLSEEELKKLAEELAKEGLFEITSIKVENGYVTITIKKKPKPPPKPEKKKVVFDKDGKPVSA [r9_830_TrROS_Hall]	0.975 ± 0.071 kcal/mol
SASPDETVILEKVLPPSASPEEVEKEREEIREKLESLGAKVEVTIEPDPETGTIPIKITITKEQYEKLKSAG [r14_602_JUSTAS]	-0.459 ± 0.064 kcal/mol
SMKIKIYVAPPGYVVVRITGPNGFYIPIPAKDPDEAKAKLEELINNLQERNGHKPDIDVVPFPPGQEIGDSA [r9_786_TrROS]	1.39 ± 0.044 kcal/mol

Sequence	folding stability dG unfold
SAGGSAGGSAPKPIEITFPAKSLEEAKIAAEEIKRAFEELEDVKVEVEYDPETGTVTVRVYGSAGGSAGGSA [r18_368_TrMRF]	2.88 ± 0.12 kcal/mol
SIYIMLPVPPGKPYKLSIEIEMPDNGRPYEYDGTFNPENGWVMFPVRFPDNGHPIPPEDFKVKVELEPPKSA [r9_928_TrROS]	1.42 ± 0.072 kcal/mol
SAGGSAGGSAGMTVPPELSVTITRSPEGSLRVESPVPDRELTIPPDVPLTVSPDNVVTVASAGGSAGGSAGG [r17_49_JUSTAS]	0.451 ± 0.031 kcal/mol
DVVIDIDELKKAIEKAKPGEVLELTVKVKDKATGKEYTVRVTVTVNPDGKTVTVTVVNEETGEVIETITLPS [r1_165_TrROS_Hall]	3.94 ± 0.21 kcal/mol
SAGGSAGGSAGGMYRIKVTTKDGRERVIEVKPGEEITLEELRKAGLSEEEIERVEIEEVSAGGSAGGSAGGS [r10_565_TrROS_Hall]	1.89 ± 0.076 kcal/mol
SAGGSAGGSMSTTETTVTEVTITVRSDGKVSREVKVTVTTTTTITPAGGTATVTTTTTRTPLESAGGSAGGS [r12_409_JUSTAS]	1.01 ± 0.053 kcal/mol
SAGGSAGGSAGIKIEWEQMPGGYMQYKVTIPDPNGKPLKIDVHYKSPEDAEEKAKELLKSSAGGSAGGSAGG [r11_819_TrROS]	0.215 ± 0.089 kcal/mol
SAGGSAGGSAMLTIPVTTPEEARELAEELLRRGYLRVEPTEDGDVTVIHPDGVPTRILVPTESAGGSAGGSA [r18_126_TrMRF]	0.471 ± 0.043 kcal/mol
SAGGSEPPKIKKIKDINVKHERHNDRPYWEVKIRIKLKNGNTAEIDIEMPGMPPEEAREQIKDILKSAGGSA [r2_26_TrROS]	0.391 ± 0.15 kcal/mol
SAGKPKKKKRTITIPIEHNPNNGNFTIKIRWPGRPVTVPFPGDDPEEMLDNMLNELENRLGWPIDEVEISAG [r5_251_TrROS]	0.932 ± 0.069 kcal/mol
SAGMLTLRVVLPKEEAEARARALAEELRRRLGLPPGAKIEVKVVEYDEETGEVVVEVTIEVELPPGVEPSAG [r5_537_TrROS_Hall]	4.27 ± 0.14 kcal/mol
SAGGSAGGSELPVESIETETYEDPSTGVKTVREKYPGGYVVTKTLYVPPDGPPIELPVEVRPESAGGSAGGS [r12_111_JUSTAS]	-0.0484 ± 0.17 kcal/mol
SAGGSAEVRVVAEPLPDDYLLVLVEFDSPEVLPEALEAIPGVVEVRAYRFLEEGRPRYRVLALVPASAGGSA [r15_344_TrMRF]	1.4 ± 0.024 kcal/mol
SAGAVRPDEPVTVTVTVEVDPETGFVRVTFDAAAPDGITVEALIPPDGPVLVRVRRPGSRETVEVVLPASAG [r5_55_TrMRF]	2.57 ± 0.13 kcal/mol
MKPLTPEEVKKIAEGIAKEIEKAAKALGIDKVEVPVKIEKLPDGGYKIIIEVKLYKDDKKIGTFPIEIYIDS [r1_364_TrMRF]	3.51 ± 0.34 kcal/mol

Assay: folding stability dG unfold from chymotrypsin proteolysis; higher = more stable
How it was run: as §1

Sequence	folding stability dG unfold
SAGGSAGGSPLDIEIKMEFHPDHGYWEMEIKIPGNGREINIHYQYEGGKPQITSPEQILDAIKSAGGSAGGS [r20_131_TrROS]	1.5 ± 0.082 kcal/mol
SAGNSNTRYIVRIKIKKYNPETGKIEEIEIDVPISDDDLNIPVEKIIEALKKAFPNTEIEAEITKVPASAGG [r19_189_TrMRF]	3.88 ± 0.13 kcal/mol
SAGGSAMTITIKIENEDVTIPSSKSKEEILKAIKENPDVPVTVTLPDGTPVTLSPEELEKLIKEEKSAGGSA [r15_36_JUSTAS]	1.23 ± 0.022 kcal/mol
SAGGSSYSVAQSPGPARLYSVPQPDGRVVEVDVEELPGGLLRVRVPDDPVPRLFPASLSLADIVSLSAGGSA [r2_338_JUSTAS]	0.933 ± 0.046 kcal/mol
SAGGSAEIEITVTVPPEMTEEEIKEQLEAELQRLTGEKVEIVDIRVEEVNGELTVTVKIKIEPAPPSAGGSA [r15_105_TrROS_Hall]	2.71 ± 0.2 kcal/mol
SAANTEEITITVPLTDPETGEERTVTIPVKYVNTNKPYKTPNGSTKTIPVPKSTVIKEAEEEAKKIFESSSA [r9_698_JUSTAS]	0.213 ± 0.3 kcal/mol
SAGGSLPLPPGATVETTEVDPANPDRTYKTTTTFTPVPGNTLLATPVVTDPETGTTTTTTTTVPLALGSAGG [r13_268_JUSTAS]	0.809 ± 0.15 kcal/mol
SAGGSAGGSAGGGKKVKVIIAADKPEEAEKAIEKLEKETDLPLEDVIVIPREEAEKLGLASAGGSAGGSAGG [r7_84_TrMRF]	-0.574 ± 0.14 kcal/mol
SAGGKGKAVPFEIEFEAPGGKKVKAKITRIDLPDKPIYRVEVEVDGKKITYTATEDEAANLTFTPGGSAGGS [r8_257_TrMRF]	2.21 ± 0.035 kcal/mol
SAGGSAGGSAGMVIEDPSGVTTVVTFDTSVPVVTTTTLTKDPNSNNYTTTTTTTPVTVPVSAGGSAGGSAGG [r17_491_JUSTAS]	0.725 ± 0.11 kcal/mol
SKIEIEVFPEEGFIRIRLEAENLTEEELKDAIIEFIKSLGFPAEVEILRIEPSGNTIRIEALVKVEPGYLSA [r9_347_TrMRF]	2.673 ± 0.022 kcal/mol
SAGGSAGGSAGGKVYFLPDNTVVYELPDGLYLAVTVNENGEPSRTLYRVLSPTEIKPFPLSAGGSAGGSAGG [r7_423_TrMRF]	1.66 ± 0.034 kcal/mol
SMKPVKITEVTEDTITVTVTVYDKETNRLVKVTAEITFDKETKKLTIKVKVEVLPPLSEEQRKALEEALKSA [r9_1038_TrROS_Hall]	2.94 ± 0.07 kcal/mol
SEITIKLKVENLSEEELKKLAEELAKEGLFEITSIKVENGYVTITIKKKPKPPPKPEKKKVVFDKDGKPVSA [r9_830_TrROS_Hall]	2.58 ± 0.12 kcal/mol
SASPDETVILEKVLPPSASPEEVEKEREEIREKLESLGAKVEVTIEPDPETGTIPIKITITKEQYEKLKSAG [r14_602_JUSTAS]	0.0517 ± 0.056 kcal/mol
